In patent US11471462B2, “Compositions and methods for detecting and treating diabetes” (THE BROAD INSTITUTE, INC., priority 2016, dated 2022):

B1: BAG2 (protein)
chain: AQAKINAKANEGRFCRSSSMADRSSRLLESLDQLELRVEALREAATAVEQEKEILLEMIHSIQNSQDMRQISDGEREELNLTANRLMGRTLTVEVSVETIRNPQQQESLKHATRIIDEVVNKFLDDLGNAKSHLMSLYSACSSEVPHGPVDQKFQSIVIGCALEDQKKIKRRLETLLRNIENSDKAIKLLEHSKGAGSKTLQQNAESRFN
B2: SLC16A11 (protein, UniProt Q8NCK7 1-471, looked up)
Monocarboxylate transporter 11: MPAPQRKHRRGGFSHRCFPTPQTAMTPQPAGPPDGGWGWVVAAAAFAINGLSYGLLRSLGLAFPDLAEHFDRSAQDTAWISALALAVQQAASPVGSALSTRWGARPVVMVGGVLASLGFVFSAFASDLLHLYLGLGLLAGFGWALVFAPALGTLSRYFSRRRVLAVGLALTGNGASSLLLAPALQLLLDTFGWRGALLLLGAITLHLTPCGALLLPLVLPGDPPAPPRSPLAALGLSLFTRRAFSIFALGTALVGGGYFVPYVHLAPHALDRGLGGYGAALVVAVAAMGDAGARLVCGWLADQGWVPLPRLLAVFGALTGLGLWVVGLVPVVGGEESWGGPLLAAAVAYGLSAGSYAPLVFGVLPGLVGVGGVVQATGLVMMLMSLGGLLGPPLSGFLRDETGDFTASFLLSGSLILSGSFIYIGLPRALPSCGPASPPATPPPETGELLPAPQAVLLSPGGPGSTLDTTC
B3: SURF4 (protein)
chain: GQNDLMGTAEDFADQFLRVTKQYLPHVARLCLISTFLEDGIRMWFQWSEQRDYIDTTWNCGYLLASSFVFLNLLGQLTGCVLVLSRNFVQYACFGLFGIIALQTIAYSILWDLKFLMRNLALGGGLLLLLAESRSEGKSMFAGVPTMRESSPKQYMQLGGRVLLVLMFMTLLHFDASFFSIVQNIVGTALMILVAIGFKTKLAALTLVVWLFAINVYFNAFWTIPVYKPMHDFLKYDFFQTMSVIGGLLLVVALGPGGVSMDEKKKEW
B4: CANX (protein)
chain: HDGHDDDVIDIEDDLDDVIEEVEDSKPDTTAPPSSPKVTYKAPVPTGEVYFADSFDRGTLSGWILSKAKKDDTDDEIAKYDGKWEVEEMKESKLPGDKGLVLMSRAKHHAISAKLNKPFLFDTKPLIVQYEVNFQNGIECGGAYVKLLSKTPELNLDQFHDKTPYTIMFGPDKCGEDYKLHFIFRHKNPKTGIYEEKHAKRPDADLKTYFTDKKTHLYTLILNPDNSFEILVDQSVVNSGNLLNDMTPPVNPSREIEDPEDRKPEDWDERPKIPDPEAVKPDDWDEDAPAKIPDEEATKPEGWLDDEPEYVPDPDAEKPEDWDEDMDGEWEAPQIANPRCESAPGCGVWQRPVIDNPNYKGKWKPPMIDNPSYQGIWKPRKIPNPDFFEDLEPFRMTPFSAIGLELWSMTSDIFFDNFIICADRRIVDDWANDGWGLKKAADGAAEPGVVGQMIEAAEERPWLWVVYILTVALPVFLVILFCCSGKKQTSGMEYKKTDAPQPDVKEEEEEKEEEKDKGDEEEEGEEKLEEKQKSDAEEDGGTVSQEEEDRKPKAEEDEILNRSPRNRKPRRE
B5: SEC61A2 (protein)
chain: MGIKFLEVIKPFCAVLPEIQKPERKIQFREKVLWTAITLFIFLVCCQIPLFGIMSSDSADPFYWMRVILASNRGTLMELGISPIVTSGLIMQLLAGAKIIEVGDTPKDRALFNGAQKLFGMIITIGQAIVYVMTGMYGDPAEMGAGICLLIIIQLFVAGLIVLLLDELLQKGYGLGSGISLFIATNICETIVWKAFSPTTINTGRGTEFEGAVIALFHLLATRTDKVRALREAFYRQNLPNLMNLIATVFVFAVVIYFQGFRVDLPIKSARYRGQYSSYPIKLFYTSNIPIILQSALVSNLYVISQMLSVRFSGNFLVNLLGQWADVSGGGPARSYPVGGLCYYLSPPESMGAIFEDPVHVVVYIIFMLGSCAFFSKTWIEVSGSSAKDVAKQLKEQQMVMRGHRDTSMVHELNRYIPTAAAFGGLCIGALSVLADFLGAIGSGTGILLAVTIIYQYFEIFVKEQAEVGGMGALFF
B6: DDOST (protein)
chain: SGPRTLVLLDNLNVRETHSLFFRSLKDRGFELTFKTADDPSLSLIKYGEFLYDNLIIFSPSVEDFGGNINVETISAFIDGGGSVLVAASSDIGDPLRELGSECGIEFDEEKTAVIDHHNYDISDLGQHTLIVADTENLLKAPTIVGKSSLNPILFRGVGMVADPDNPLVLDILTGSSTSYSFFPDKPITQYPHAVGKNTLLIAGLQARNNARVIFSGSLDFFSDSFFNSAVQKAAPGSQRYSQTGNYELAVALSRWVFKEEGVLRVGPVSHHRVGETAPPNAYTVTDLVEYSIVIQQLSNGKWVPFDGDDIQLEFVRIDPFVRTFLKKKGGKYSVQFKLPDVYGVFQFKVDYNRLGYTHLYSSTQVSVRPLQHTQYERFIPSAYPYYASAFSMMLGLFIFSIVFLHMKEKEKSD
B7: SACM1L (protein)
chain: MATAAYEQLKLHITPEKFYVEACDDGADDVLTIDRVSTEVTLAVKKDVPPSAVTRPIFGILGTIHLVAGNYLIVITKKIKVGEFFSHVVWKATDFDVLSYKKTMLHLTDIQLQDNKTFLAMLNHVLNVDGFYFSTTYDLTHTLQRLSNTSPEFQEMSLLERADQRFVWNGHLLRELSAQPEVHRFALPVLHGFITMHSCSINGKYFDWILISRRSCFRAGVRYYVRGIDSEGHAANFVETEQIVHYNGSKASFVQTRGSIPVFWSQRPNLKYKPLPQISKVANHMDGFQRHFDSQVIIYGKQVIINLINQKGSEKPLEQTFATMVSSLGSGMMRYIAFDFHKECKNMRWDRLSILLDQVAEMQDELSYFLVDSAGQVVANQEGVFRSNCMDCLDRTNVIQSLLARRSLQAQLQRLGVLHVGQKLEEQDEFEKIYKNAWADNANACAKQYAGTGALKTDFTRTGKRTHLGLIMDGWNSMIRYYKNNFSDGFRQDSIDLFLGNYSVDELESHSPLSVPRDWKFLALPIIMVVAFSMCIICLLMAGDTWTETLAYVLFWGVASIGTFFIILYNGKDFVDAPRLVQKEKID
B8: HSDI7B12 (protein, UniProt Q53GQ0 1-312, looked up)
Very-long-chain 3-oxoacyl-CoA …: MESALPAAGFLYWVGAGTVAYLALRISYSLFTALRVWGVGNEAGVGPGLGEWAVVTGSTDGIGKSYAEELAKHGMKVVLISRSKDKLDQVSSEIKEKFKVETRTIAVDFASEDIYDKIKTGLAGLEIGILVNNVGMSYEYPEYFLDVPDLDNVIKKMININILSVCKMTQLVLPGMVERSKGAILNISSGSGMLPVPLLTIYSATKTFVDFFSQCLHEEYRSKGVFVQSVLPYFVATKLAKIRKPTLDKPSPETFVKSAIKTVGLQSRTNGYLIHALMGSIISNLPSWIYLKIVMNMNKSTRAHYLKKTKKN
B9: HSD17B12 (protein)
chain: MESALPAAGFLYWVGAGTVAYLALRISYSLFTALRVWGVGNEAGVGPGLGEWAVVTGSTDGIGKSYAEELAKHGMKVVLISRSKDKLDQVSSEIKEKFKVETRTIAVDFASEDIYDKIKTGLAGLEIGILVNNVGMSYEYPEYFLDVPDLDNVIKKMININILSVCKMTQLVLPGMVERSKGAILNISSGSGMLPVPLLTIYSATKTFVDFFSQCLHEEYRSKGVFVQSVLPYFVATKLAKIRKPTLDKPSPETFVKSAIKTVGLQSRTNGYLIHALMGSIISNLPSWIYLKIVMNMNKSTRAHYLKKTKKN
B10: TMEM33 (protein)
chain: ADTTPNGPQGAGAVQFMMTNKLDTAMWLSRLFTVYCSALFVLPLLGLHEAASFYQRALLANALTSALRLHQRLPHFQLSRAFLAQALLEDSCHYLLYSLIFVNSYPVTMSIFPVLLFSLLHAATYTKKVLDARGSNSLPLLRSVLDKLSANQQNILKFIACNEIFLMPATVFMLFSGQGSLLQPFIYYRFLTLRYSSRRNPYCRTLFNELRIVVEHIIMKPACPLFVRRLCLQSIAFISRLAPTVP

System: SLC16A11
Experiment: SLC16A11 protein-protein interaction study (immunoprecipitation, quantitative mass spectrometry)
Design: species or system human
Settings: Blandt-Altman; for BA log fold change: putative SLC16A11^REF interaction partners, immunoprecipitation from HEK293T cells vs empty vector control
Description: Alternatively, these variants may result in reduced transport because they disrupt protein-protein interactions responsible for correct SLC16A11 function. To explore this possibility, SLC16A11 was immunoprecipitated from HEK293T cells expressing either REF or T2D risk SLC16A11-V5 or empty vector control and quantitative mass spectrometry was used to define the SLC16A11 interactome.
Another mechanism through which the variants could affect activity is through disruption of protein-protein interactions. To explore this possibility, quantitative mass spectrometry-based protein-protein interaction studies were performed to define the SLC16A11 interactome and evaluate if the T2D risk coding variants alter any interactions.
Beads were then washed once with lysis buffer and three times with wash buffer. After the last wash, residual wash buffer was removed, 10 μL fresh wash buffer was added, and beads were stored at −80° C. until analysis by the Proteomics Platform at the Broad Institute, as detailed in the “Proteomics Methods for SLC16A11 Protein Interaction Studies” below.
The beads from immunopurification were washed once with IP lysis buffer, then three times with PBS, the three different lysates of each replicate were resuspended in 90 uL digestion buffer (2M Urea, 50 mM Tris HCl), 2 ug of sequencing grade trypsin added, 1 hour shaking at 700 rpm. The supernatant was removed and placed in a fresh tube. The beads were then washed twice with 50 uL digestion buffer and combined with the supernatant. The combined supernatants were reduced (2 uL 500 mM DTT, 30 minutes, RT), alkylated (4 uL 500 mM IAA, 45 minutes, dark) and a longer overnight digestion performed: 2 ug (4 uL) trypsin, shake o/n, The samples were then quenched with 20 uL 10% FA and desalted on 10 mg SepPak columns.
Desalted peptides were labelled with iTRAQ reagents according to the manufacturer's instructions (AB Sciex, Foster City, Calif.). Peptides were dissolved in 30 μl of 0.5 M TEAB pH 8.5 solution and labeling reagent was added in 70 ul of ethanol. After 1 h incubation the reaction was stopped with 50 mM Tris/HCl pH 7.5. Differentially labelled peptides were mixed and subsequently desalted on 10 mg SepPak columns.
Reconstituted peptides were separated on an online nanoflow EASY-nLC 1000 UHPLC system (Thermo Fisher Scientific) and analyzed on a benchtop Orbitrap Q Exactive Plus mass spectrometer (Thermo Fisher Scientific). The peptide samples were injected onto a capillary column (Picofrit with 10 μm tip opening/75 μm diameter, New Objective, PF360-75-10-N-5) packed in-house with 20 cm C18 silica material (1.9 μm ReproSil-Pur C18-AQ medium, Dr. Maisch GmbH, r119.aq). The UHPLC setup was connected with a custom-fit microadapting tee (360 μm, IDEX Health & Science, UH-753), and capillary columns were heated to 50° C. in column heater sleeves (Phoenix-ST) to reduce backpressure during UHPLC separation. Injected peptides were separated at a flow rate of 200 nL/min with a linear 80 min gradient from 100% solvent A (3% acetonitrile, 0.1% formic acid) to 30% solvent B (90% acetonitrile, 0.1% formic acid), followed by a linear 6 min gradient from 30% solvent B to 90% solvent B. Each sample was run for 120 min, including sample loading and column equilibration times. The Q Exactive instrument was operated in the data-dependent mode acquiring HCD MS/MS scans (R=17,500) after each MS1 scan (R=70,000) on the 12 top most abundant ions using an MS1 ion target of 3×10^6 ions and an MS2 target of 5×10^4 ions. The maximum ion time utilized for the MS/MS scans was 120 ms; the HCD-normalized collision energy was set to 27; the dynamic exclusion time was set to 20 s, and the peptide match and isotope exclusion functions were enabled.
All mass spectra were processed using the Spectrum Mill software package v6.0 pre-release (Agilent Technologies) which includes modules developed by us for iTRAQ-based quantification. […]

Molecule | BA log fold change | B.A. logFC (enrichment of protein immunoprecipitated from HEK293T cells expressing P2D SLC16A11^REF-V5 vs empty vector control, quantitative mass spectrometry)
B1 | 1.26 | –
B2 | 1.34 | –
B3 | 1.33 | –
B4 | 1.38 | –
B5 | 1.59 | –
B6 | 1.65 | –
B7 | 1.26 | –
B8 | – | 1.26
B9 | 1.26 | –
B10 | 1.25 | –
